Measurements taken from article PMC8938473.

Biological target: T1, His6-CRP (cAMP receptor protein) (Shewanella putrefaciens CN32) (UniProt A0ABX8XCW1)
T1 sequence: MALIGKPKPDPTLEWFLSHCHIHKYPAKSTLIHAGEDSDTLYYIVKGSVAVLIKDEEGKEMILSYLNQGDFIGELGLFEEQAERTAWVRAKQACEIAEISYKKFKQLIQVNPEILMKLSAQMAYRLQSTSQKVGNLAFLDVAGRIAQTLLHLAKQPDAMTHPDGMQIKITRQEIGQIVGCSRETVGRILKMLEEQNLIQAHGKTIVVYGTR
Assay: EMSA
Details: EMSA per DIG Gel Shift Kit 2nd Generation (Roche) protocol, 1 uM cAMP when necessary; buffer, salt, pH and temperature not given

## ACCGATCCCATAATTAGCTCCCAACACCCAAGTGTTAATCCAAACAAAGGCCCACAAATCCAACAAATGTATGGAAGTGTGATACAAGTGGTGGAATTTTAGCTAATGAGCGAATGGAAGTCAATTTTTTGACGCGCCTCTATCGCTTGGTATTAAGGCTTTTTCTTGCGCATTACCTGTAAAATTGACGCTGGTTTTGTATAAAACTAGATGTTGTATGTTTATTTGTA (double strand) [bpfA-pro]
  binding: binds
